The values below come from patent US20240239872A1 (SHANDONG AGRICULTURAL UNIVERSITY, published 2024).

Assay [1] addresses T1, PVY in juice of infected plants (coat protein on virus) (Potato virus Y). The assay is described as follows: indirect ELISA (antigen not stated).
Assay [2] addresses T1, PVY in juice of infected plants (coat …). The assay is described as follows: dot-ELISA on diluted juice of PVY-infected plants. In general terms: In an ELISA, binding on a coated surface is turned into a signal by an enzyme label.

B1: monoclonal antibody M3 (antibody, V domains shown)
VH: EVILVESGGGLVKPGGSLRLSCAASGFTFSSHPLSWVRQSPDKRLEWVASISSGGRYTYYPDSVKGRLTISRDNAKNILYLHMNSLRSEDTAMYYCARRGSTATAWFAYWGQGTLVTVSA
VL: DIALTQSPASLAVSLGQRATISCKASQSVDYDGDSYMSWYQQKPGQPPKLLIYGASNLESGIPARFSGSGSGTDFTLNIHPVEEEDAATYYCQQSNEDLPTFGGGTKLEIK
notes: also called MAb M3
As to B1, in assay [1], the Titer amounted to 243000 reciprocal dilution. Moreover, the “dilution of PVY-infected juice still detected” value (“dilution” below) in assay [2] was 5120 times (fold dilution).

B2: monoclonal antibody C1 (antibody, V domains shown)
VH: EVQLQQSGAELVRPGALVKLSCKASGFNIKDYYMHWVKQRPEEGLEWIGWIDPENGNTIYDPKFQGKASITADTSSNTVRLQLSSLTSEDTAVYYCARERGAYWGQGTLVTVSA
VL: QIVLTQSPAIMSASPGEKVTMTCSASSSVSYMYWFQQKPGSSPRLLIYDTSNLASGVPVRFSGSGSGTSYSLTISRMEAEDAATFYCQQWSSYPLTFGAGTKLELK
notes: also called MAb C1
Regarding B2, in assay [1], the Titer amounted to 243000 reciprocal dilution. The “dilution” value in assay [2] was 5120 times (fold dilution).

B3: monoclonal antibody M1 (antibody, V domains shown)
VH: QVQLQQSGPELVRPGASVKMSCKTSGYPFSTYWMHWVKQRPGQGLEWIGMIKPSNSETSLNQKFKDKATLNVDKSSNTAYMQLNSLTSEDSGVYYCARAGDSWGQGTTLTVSS
VL: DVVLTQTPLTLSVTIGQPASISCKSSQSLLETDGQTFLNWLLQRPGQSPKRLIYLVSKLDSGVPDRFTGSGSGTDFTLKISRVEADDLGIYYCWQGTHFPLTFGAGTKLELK
notes: also called MAb M1
In assay [1], B3 had a Titer of 243000 reciprocal dilution. The “dilution” value in assay [2] was 5120 times (fold dilution).

B4: monoclonal antibody N1 (antibody, V domains shown)
VH: EVQLVESGGGLVQPGGSLKLSCAASGFTFSSYGMSWVRQSPDKRLEWVATINNNGGSTYYPDSVKGRFTISRDNAKNTLYLQMSSLKSEDTAVYYCARDAAFDCWGQGTTLTVSS
VL: DIVMSQSPSSLAVSAGEKVTMSCKSSQSLLNSRTRKNYLAWYQQKPGQSPKLLIYWASTRESGVPDRFTGSGSGTDFTLTISSVQAEDLAVYYCKQSYNLFTFGSGTKLEIK
notes: also called MAb N1
In turn, B4 showed a Titer in assay [1] of 243000 reciprocal dilution. Also, the “dilution” value in assay [2] was 10200 times (fold dilution).

B5: monoclonal antibody M2 (antibody, V domains shown)
VH: EVQLVESGGGLVQPKGSLKLSCAASDFTFNTHSMNWVRQAPGKVLEWIARIRSQSNNYATYYADSVKDRFTISRDDSQNMFYLQMNNLKTEDTAMYYCAGDYYGPFAYWGQGTLVAVSA
VL: DVLMTQTPLSLPVSLGDQASISCRSGQSLVHSNGNTYLHWYLQKPGQSPKLLIYKVSNRFSGVPDRFSGSGSGTDFTLKISRVEAEDLGVYFCSQSTHVPWTFGGGTKLEIK
notes: also called MAb M2
In turn, B5 gave a Titer in assay [1] of 243000 reciprocal dilution. In assay [2], the “dilution” value was 640 times (fold dilution).
